According to paper PMC9781616:

Biological target: Echovirus 11 (E11) strain 18-2135 full virus particle (capsid of VP1-4) (echovirus 11 (strain 18-2135))
Assay: cryo-EM structure

“Decay-accelerating factor (DAF) full-length ectodomain, short consensus repeats SCR 1-4 (from UniProt P08174 35-285) (receptor)” was tested, and the DAF occupancy was 31.5% and the stoichiometry N (DAF molecules per particle) was 20.
